# Literature values in article PMC6803667, “Binding site plasticity in viral PPxY Late domain recognition by the third WW domain of human NEDD4” (Scientific Reports, 2019).
# Target: ARRDC3 peptide (Homo sapiens)
# Chain of NEDD4 WW3 (P46934 837-876): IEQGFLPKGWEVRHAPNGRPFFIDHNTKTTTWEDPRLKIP
substance,measurement,value
NEDD4 WW3 (from UniProt P46934),Kd,3000 nM
